The target in the assay is T1, CD20 (Acro Biosystems) (UniProt P11836 1-297).
T1 sequence (looked up): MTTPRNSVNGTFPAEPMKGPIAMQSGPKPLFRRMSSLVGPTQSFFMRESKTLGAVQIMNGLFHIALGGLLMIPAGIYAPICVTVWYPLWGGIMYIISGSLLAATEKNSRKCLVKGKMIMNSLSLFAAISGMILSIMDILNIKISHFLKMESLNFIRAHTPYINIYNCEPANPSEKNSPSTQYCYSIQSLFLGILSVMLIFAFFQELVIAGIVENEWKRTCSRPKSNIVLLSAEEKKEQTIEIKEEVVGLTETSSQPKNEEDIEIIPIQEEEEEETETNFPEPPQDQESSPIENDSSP

Where only a bound is given, the exact number is not on record here.

B1: rituximab (antibody, human IgG1, kappa, V domains shown)
VH: QVQLQQPGAELVKPGASVKMSCKASGYTFTSYNMHWVKQTPGRGLEWIGAIYPGNGDTSYNQKFKGKATLTADKSSSTAYMQLSSLTSEDSAVYYCARSTYYGGDWYFNVWGAGTTVTVSA
VL: QIVLSQSPAILSASPGEKVTMTCRASSSVSYIHWFQQKPGSSPKPWIYATSNLASGVPVRFSGSGSGTSYSLTISRVEAEDAATYYCQQWTSNPPTFGGGTKLEIKR
For orientation: Kd means a measure of binding affinity in units of concentration. As usually defined, the koff is the first-order rate constant of dissociation. Broadly, the kon is the rate constant with which the complex forms. Lower therefore signals slow association. For the molecule B1, the Kd is under 1 pM, the koff is under 1e-07 s⁻¹ and the kon was determined as 140000 M⁻¹ s⁻¹.

The record behind these values is patent publication US20230173091A1 (published 2023).
